Among the data in PMC13462928 (2026) are Kd values, retold here.

The target in the assay is NUDT5 (Homo sapiens, UniProt Q9UKK9, dNUDT5 ternary complex, engineered CRBNmidi). The assay can be described thus: proximity binding assay.

B1: CRBNmidi (protein)
chain: MAGEGDQQDAAHNMGNHLPLLPAESEEEDEMEVEDQDSKEAKKPNIINFDTSLPTSHTYLGADMEEFHGRTLHDDDSCQVIPVLPQVMMILIPGQTLPLQLFHPQEVSMVRNLIQKDRTFAVLAYSNVQEREAQFGTTAEIYAYREEQDFGIEIVKVKAIGRQRFKVLELRTQSDGIQQAKVQILPECVLPSTMSAVQLESLNKCQIFPSKPVSREDQCSYKWWQKYQKRKFHCANLTSWPRWLYSLYDAETLMDRIKKQLREWDENLKDDSLPSNPIDFSYRVAACLPIDDVLRIQLLKIGSAIQRLRCELDIMNKCTSLCCKQCQETEITTKNEIFSLSLCGPMAAYVNPHGYVHETLTVYKACNLNLIGRPSTEHSWFPGYAWTVAQCKICASHIGWKFTATKKDMSPQKFWGLTRSALLPTIPDTEDEISPDKVILCL
One may read the Kd as the free concentration of one partner at which half of the binding sites on the other are occupied at equilibrium, for simple one-to-one binding. Higher therefore signals a looser complex. With B1, the Kd stood at 0.34 nM. This counts as sub-nanomolar.
